Data published in patent US20240209112A1 (GENOME, published 2024).

T1: BCAM protein (antigenic protein coated in the ELISA) (UniProt P50895 32-547, limits assumed)
T1 construct: also called antigen protein; Lu
T1 sequence (looked up): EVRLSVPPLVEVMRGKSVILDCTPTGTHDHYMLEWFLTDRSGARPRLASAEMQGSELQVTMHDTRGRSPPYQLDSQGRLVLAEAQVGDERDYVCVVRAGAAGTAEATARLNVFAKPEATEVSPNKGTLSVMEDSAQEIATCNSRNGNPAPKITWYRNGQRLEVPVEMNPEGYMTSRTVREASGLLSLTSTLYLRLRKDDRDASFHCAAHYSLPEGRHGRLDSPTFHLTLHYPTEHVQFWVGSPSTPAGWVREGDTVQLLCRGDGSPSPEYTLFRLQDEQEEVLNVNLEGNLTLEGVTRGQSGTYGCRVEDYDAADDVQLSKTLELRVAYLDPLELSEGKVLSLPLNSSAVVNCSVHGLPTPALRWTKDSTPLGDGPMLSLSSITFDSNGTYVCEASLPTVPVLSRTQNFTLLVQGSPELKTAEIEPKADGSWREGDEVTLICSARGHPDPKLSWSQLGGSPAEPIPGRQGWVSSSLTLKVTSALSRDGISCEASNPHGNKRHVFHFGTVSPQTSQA

T2: Human BCAM expressed on transfected HEK293FT cells (human, UniProt P50895 32-628)
T2 construct: whole, on cells; also called Human BCAM antigens; 293FT/BCAM1
T2 sequence (looked up): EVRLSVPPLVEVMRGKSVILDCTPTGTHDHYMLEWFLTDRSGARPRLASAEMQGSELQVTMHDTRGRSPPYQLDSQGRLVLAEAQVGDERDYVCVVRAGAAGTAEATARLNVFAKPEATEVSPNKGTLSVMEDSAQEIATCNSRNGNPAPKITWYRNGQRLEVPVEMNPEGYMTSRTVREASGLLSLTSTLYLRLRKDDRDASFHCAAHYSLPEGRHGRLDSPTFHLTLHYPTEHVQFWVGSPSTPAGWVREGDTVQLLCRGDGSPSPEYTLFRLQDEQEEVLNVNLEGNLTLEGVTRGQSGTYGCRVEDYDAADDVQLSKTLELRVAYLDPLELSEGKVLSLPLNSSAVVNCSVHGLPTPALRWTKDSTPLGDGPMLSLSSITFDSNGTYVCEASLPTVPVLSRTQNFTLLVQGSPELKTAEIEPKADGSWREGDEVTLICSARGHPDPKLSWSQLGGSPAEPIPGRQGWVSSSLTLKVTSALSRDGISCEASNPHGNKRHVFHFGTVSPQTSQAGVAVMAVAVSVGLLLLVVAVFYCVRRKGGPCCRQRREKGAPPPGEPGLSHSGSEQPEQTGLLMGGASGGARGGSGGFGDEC

T3: Human BCAM (amine-coupled to AR2G biosensors) (human, UniProt P50895 32-547, limits assumed)
T3 construct: also called human BCAM protein
T3 sequence (looked up): T1 sequence (looked up)

B1: anti-BCAM human IgG4 antibody 111b (antibody, V domains shown)
VH: EVQLVQSGAEVKKPGASVKVSCKASGYTFTSYYMHWVRQAPGQGLEWMGIINPSGGSTSYAQKFQGRVTMTRDTSTSTVYMELSSLRSEDTAVYYCARDGKGWDYYGSGSPLQYWGQGTLVTVSS
VL: LPVLTQPPSVSKGLRQTATLTCTGNSNNVGNQGAAWLQQHQGHPPKLLSYRNNDRPSGISERLSASRSGNTASLTITGLQPEDEADYYCSAWDSSLSAWVFGGGTKLTVL
B2: anti-BCAM human IgG4 antibody 111c (antibody, V domains shown)
VH: EVQLVQSGGGLVKPGGSLRLSCAASGFTFSDYYMSWIRQAPGKGLEWVSYTSSSGSTIYYADSVKGRFTISRDNAKNSLYLQMNSLRAEDTAVYYCARDITAFDIWGQGTMVTVSS
VL: LPVLTQPPSASGSPGQSVTISCTGTSSDVGGYNYVSWYQQHPGKAPKLMIYEVNKRPSGVPDRFSGSKSGNTASLTVSGLQAEDEADYYCCSYAGSNNYVFGTGTKVTVL
B3: anti-BCAM human IgG4 antibody 111a (antibody, V domains shown)
VH: QVTLKESGPGLVKPSGTLSLTCAVSGGSISSSNWWSWVRQPPGKGLEWIGEIYHSGSTNYNPSLKSRVTISVDKSKNQFSLKLSSVTAADTAVYYCARAYTVTTTYFDYWGQGTLVTVSS
VL: NIQMTQSPSTLSASVGDRVTITCRASQSMSTWLAWYQQKPGRAPKLLIYKASALETGVPSRFSGSGSGTQFTLTISSLQPDDFATYYCQQYDEFASFGQGTKVEIK
notes: Derived from a human scFv phage library; also called 11la

Legend:
[1] = biological target: T1, BCAM protein (antigenic protein coated …); assay: ELISA on coated BCAM protein
Procedure: (§1) In order to confirm the binding ability of each antibody prepared in Example 1 to an antigen protein (BCAM protein), an ELISA (Enzyme-Linked Immunosorbent Assay) test was performed. The antigenic protein was diluted in PBS buffer and prepared to a concentration of 15 nM. Each well of a 96-well half plate (Costar, Cat. No. 3690) was coated with 50 μL of the antigenic protein, followed by overnight incubation at 4° C. Next day, after all the solutions in the plate were removed, a blocking buffer (3% BSA in PBS) was added to each well, followed by incubation at 37° C. for 1 hour. Three antibody samples (111a, 111b, and 111c) were sequentially diluted in the blocking buffer from 1 μM to 7 points (1 pM) at a dilution ratio of 10-fold. After the blocking process was completed, the buffer was removed from the well, and the antibodies prepared by the dilution was added to each well by 50 μL, followed by incubation at 37° C. for 2 hours. The incubated well was washed with 0.1% PBST (0.1% Tween 20 in PBS) and were treated with HRP-conjugated anti-human IgG Fc antibodies (ThermoFisher Scientific, Cat. No.: 31423) which were secondary antibodies for antibody detection at 37° C. for 1 hour, and then washed again with 0.1% PBST. ABTS solution (ThermoFisher Scientific, Cat. No.: 00-2024) was added to each well by 50 μL for coloring, and reacted at room temperature for 10 minutes, and an optical density at 405 nm (OD₄₀₅) was measured. In order to compare the degree of avidity of each antibody to antigens, the EC50 concentration of each antibody was calculated, and the results are shown in Table 4.

[2] = biological target: T1, BCAM protein (antigenic protein coated …); assay: ELISA, BCAM coated at 15 nM, antibody at 1000 nM
Procedure: as §1

[3] = biological target: T1, BCAM protein (antigenic protein coated …); assay: ELISA, BCAM coated at 15 nM, antibody at 100 nM
Procedure: as §1

[4] = biological target: T1, BCAM protein (antigenic protein coated …); assay: ELISA, BCAM coated at 15 nM, antibody at 0.001 nM
Procedure: as §1

[5] = biological target: T1, BCAM protein (antigenic protein coated …); assay: ELISA, BCAM coated at 15 nM, antibody at 1 nM
Procedure: as §1

[6] = biological target: T1, BCAM protein (antigenic protein coated …); assay: ELISA, BCAM coated at 15 nM, antibody at 10 nM
Procedure: as §1

[7] = biological target: T2, Human BCAM expressed on transfected …; assay: flow cytometry on HEK293FT cells transfected with human BCAM
Procedure: Human BCAM antigens were expressed in HEK293FT cells via transfection (using 293FT/BCAM1 plasmid). The transfected HEK293FT cells (1×10⁵ cells) were suspended in PBS and 50 μL thereof was seeded on a plate.
Separately, each of the anti-BCAM antibodies of Example 1 and isotype control (human IgG) antibodies was initially diluted at a concentration of 45 μg/mL using PBS and diluted 12 times through 3-fold dilution, and the plate was incubated at an appropriate time and at an appropriate temperature. As a negative control, PBS buffer was used.
Then, after washing, AlexaFluor® 647 AffiniPure Goat Anti-Human IgG (H+L) (min X Bov, Hrs, Ms Sr Prot) (Jackson) (1 μg/mL) was added thereto and the plate was incubated again, washed again with PBS, and the binding degree of antigen-antibody was analyzed with a flow cytometer.

[8] = biological target: T1, BCAM protein (antigenic protein coated …); assay: ELISA, BCAM coated at 15 nM, antibody at 0.1 nM
Procedure: as §1

[9] = biological target: T1, BCAM protein (antigenic protein coated …); assay: ELISA, BCAM coated at 15 nM, antibody at 0.01 nM
Procedure: as §1

[10] = biological target: T3, Human BCAM (amine-coupled to AR2G …); assay: BLI (Octet QK), human BCAM amine-coupled to AR2G sensor, antibody in solution, 1:1 fit
Procedure: The binding ability confirmation test according to BLI for the three antibodies prepared in Example 1 was performed using Octet (Octet QK, ForteBio).
Specifically, in order to bind human BCAM (antigen) using amine coupling, Reactive 2nd Generation (AR2G) biosensors (Cat. No. 18-5094, Sartorius) were mounted and activated using the AE2G reagent kit (Cat. No. 18-5095). Thereafter, the biosensors were put in an antigen solution for 10 minutes to bind the human BCAM, and put in an ethanolamine solution for 5 minutes to terminate the reaction. The biosensors to which the human BCAM was bound was put into a buffer containing the prepared three different antibodies 111a, 111b, and 111c, and the binding reaction was monitored for 5 minutes, followed by a dissociation reaction for 15 minutes. At this time, antibody solutions were sequentially diluted, and association and dissociation rates depending on different concentrations were verified. The association (Ka) and dissociation (Kd) rate constants were determined by fitting them to a 1:1 binding model using a curve-fitting software. The binding dissociation equilibrium constant (KD) was calculated with KD=Kd/Ka.

Row | Binder | EC50 [1] | OD405 [2] | OD405 [3] | OD405 [4] | OD405 [5] | OD405 [6] | EC50 [7] | OD405 [8] | OD405 [9] | Kd [10] | koff [10] | kon [10]
1 | B1 | 127 nM | 0.76 OD405 | 0.46 OD405 | 0.1 OD405 | 0.33 OD405 | 0.43 OD405 | 0.171 µg/mL | 0.35 OD405 | 0.15 OD405 | 13.1 nM | 0.000306 s⁻¹ | 23400 M⁻¹ s⁻¹
2 | B2 | 7.7 nM | 2.34 OD405 | 2.26 OD405 | 0.11 OD405 | 0.5 OD405 | 1.41 OD405 | 0.0427 µg/mL | 0.31 OD405 | 0.25 OD405 | 0.084 nM | 0.000255 s⁻¹ | 3.04e+06 M⁻¹ s⁻¹
3 | B3 | 12.5 nM | 2.32 OD405 | 2.14 OD405 | 0.1 OD405 | 0.46 OD405 | 1.09 OD405 | 0.189 µg/mL | 0.18 OD405 | 0.11 OD405 | 2.47 nM | 0.000397 s⁻¹ | 161000 M⁻¹ s⁻¹
